# Measured values taken from article PMC5448004.
# Target: HepA (helicase protein A), archaeal HerA homolog of Thermus thermophilus, product of gene TTC0147 (Thermus thermophilus HB27)
# Experiment: negative-stain single-particle electron microscopy; purified HepA at 0.3 mg/mL in 20 mM Tris-HCl pH 7.5, pre-incubated with 1-10 mM ATP (30 min, 65 °C), 2% uranyl acetate; 2D classification and 3D reconstruction with C6 symmetry
substance,measurement,value
"HepA (helicase protein A), archaeal HerA homolog of Thermus thermophilus, product of gene TTC0147 (enzyme)",stoichiometry N,6
